No end group written: not given here. O‑glycan = not defined here
Assays:
[1] = In vivo half-life assay, serum OCN after intraperitoneal injection in Bglap-/- mice; parameters: species or system mouse; details: for serum OCN / Serum OCN at 120 minutes: fed Bglap-/- male mice; for serum OCN / % OCN from initial (relative to maximum at 30 min) / % OCN from initial, mean used for 1/2 life: 40 ng/g i.p.; for serum OCN: ELISA; for % OCN from initial (relative to maximum at 30 min) / % OCN from initial, mean used for 1/2 life: serum, fasted Bglap-/- mice
Procedure: For in vivo half-life assay, Bglap-/- male mice were injected intraperitoneally with 40 or 80 ng/g of body weight of mouse O-glycosylated ucOCN or non-glycosylated ucOCN, serum OCN level was analyzed at indicated time points using total mouse OCN ELISA. In all ex vivo and in vivo studies, mouse or human proteins were prepared in saline solution (0.9% NaCl) containing BSA (35 mg/ml) as a carrier.

INS-1 832/3 cells [2] = assay: OCN stability in INS-1 832/3 cell culture media; type: in vitro ADME, rat; details: 8 hours with INS-1 cells at 37°C, ELISA
Procedure: The INS-1 832/3 rat insulinoma cell line (Millipore-Sigma) was cultured in RPMI-1640 with 11.1 mM D-glucose, supplemented with 2 mM L-glutamine, 1 mM sodium pyruvate, 10 mM HEPES, 0.05 mM β-mercaptoethanol and 10% FBS ([Hohmeier et al., 2000]). On day 1, cells were plated at 3 × 10^5 cells per well in 12-well plates and on day 5, cells were washed with PBS and incubated with culture media containing 5 mM D-glucose. Twenty-four hours later, cells were washed with PBS and incubated for 4 hr in culture media containing 1% FBS, 5 mM D-glucose and 0.1% BSA. OCN was added for 8 hr before supernatants and cells were harvested. ucOCN and O-gly ucOCN concentration were measured in supernatants by ELISA and cells were lyzed and RNA extracted as described in the material and methods section. Gene expression was analyzed using rat specific primers for Ins1 and Gapdh.

INS-1 832/3 cells [3] = assay: OCN stability in INS-1 832/3 cell culture media; type: in vitro ADME, rat; details: 8 hours at 4°C without cells, ELISA

For “O-gly ucOCN: O-glycosylated uncarboxylated mouse osteocalcin produced and purified from HEK293 as Fc fusion, released by thrombin (YLGASVPS(O‑glycan)PDPLEPTREQCELNPACDELSDQYGLKTAYKRIYGITI; ends and bridges not checked; also: O-glycosylated (HexNAc, Hex, NANA); UniProt P86546 50-95, looked up)”, the “serum OCN” value ([1]; 90 min, mouse 6) was 15.5 ng/mL, the “serum OCN” value ([1]; 90 min, mouse 7) was 7.2 ng/mL and the “serum OCN” value ([1]; 90 min, mouse 8) was 19.6 ng/mL. For the same substance, the “serum OCN” value ([1]; 90 min, mouse 9) was 11.8 ng/mL, the “serum OCN” value ([1]; 90 min, mouse 10) was 11.4 ng/mL and the “serum OCN” value ([1]; 120 min, mouse 1) was 5.5 ng/mL. The “serum OCN” value ([1]; 120 min, mouse 2) was 9.5 ng/mL, the “serum OCN” value ([1]; 120 min, mouse 3) was 4.6 ng/mL and the “serum OCN” value ([1]; 120 min, mouse 4) was 13.3 ng/mL. The “serum OCN” value ([1]; 120 min, mouse 5) was 10.2 ng/mL, the “serum OCN” value ([1]; 120 min, mouse 6) was 7.5 ng/mL and the “serum OCN” value ([1]; 120 min, mouse 7) was 4.4 ng/mL. The “serum OCN” value ([1]; 120 min, mouse 8) was 8.5 ng/mL, the “serum OCN” value ([1]; 120 min, mouse 9) was 6.4 ng/mL and the “serum OCN” value ([1]; 120 min, mouse 10) was 5.9 ng/mL. For the same substance, the “serum OCN” value ([1]; 180 min, mouse 1) was 1.2 ng/mL, the “serum OCN” value ([1]; 180 min, mouse 2) was 2.3 ng/mL and the “serum OCN” value ([1]; 180 min, mouse 3) was 1.0 ng/mL. For the same substance, the “serum OCN” value ([1]; 180 min, mouse 4) was 2.9 ng/mL, the “serum OCN” value ([1]; 180 min, mouse 5) was 2.4 ng/mL and the “serum OCN” value ([1]; 180 min, mouse 6) was 4.2 ng/mL. The “serum OCN” value ([1]; 180 min, mouse 7) was 3.5 ng/mL, the “serum OCN” value ([1]; 180 min, mouse 8) was 4.0 ng/mL and the “serum OCN” value ([1]; 180 min, mouse 9) was 3.7 ng/mL. For the same substance, the “serum OCN” value ([1]; 180 min, mouse 10) was 3.9 ng/mL, the “Serum OCN at 120 minutes” value ([1]; dose 40 ng/g i.p., mouse 1) was 9.5 ng/mL and the “Serum OCN at 120 minutes” value ([1]; dose 40 ng/g i.p., mouse 2) was 4.6 ng/mL. The “Serum OCN at 120 minutes” value ([1]; dose 40 ng/g i.p., mouse 3) was 13.3 ng/mL, the “Serum OCN at 120 minutes” value ([1]; dose 40 ng/g i.p., mouse 4) was 10.2 ng/mL and the “Serum OCN at 120 minutes” value ([1]; dose 80 ng/g i.p., mouse 1) was 11.6 ng/mL. For the same substance, the “Serum OCN at 120 minutes” value ([1]; dose 80 ng/g i.p., mouse 2) was 22.5 ng/mL, the “Serum OCN at 120 minutes” value ([1]; dose 80 ng/g i.p., mouse 3) was 25.2 ng/mL and the “Serum OCN at 120 minutes” value ([1]; dose 80 ng/g i.p., mouse 4) was 14.9 ng/mL. The “% OCN from initial (relative to maximum at 30 min)” value ([1]; 30 min, mouse 1) was 100.0%, the “% OCN from initial (relative to maximum at 30 min)” value ([1]; 30 min, mouse 2) was 100.0% and the “% OCN from initial (relative to maximum at 30 min)” value ([1]; 30 min, mouse 3) was 100.0%. For the same substance, the “% OCN from initial (relative to maximum at 30 min)” value ([1]; 30 min, mouse 4) was 100.0%, the “% OCN from initial (relative to maximum at 30 min)” value ([1]; 30 min, mouse 5) was 100.0% and the “% OCN from initial (relative to maximum at 30 min)” value ([1]; 60 min, mouse 1) was 89.4%. The “% OCN from initial (relative to maximum at 30 min)” value ([1]; 60 min, mouse 2) was 88.9%, the “% OCN from initial (relative to maximum at 30 min)” value ([1]; 60 min, mouse 3) was 97.3% and the “% OCN from initial (relative to maximum at 30 min)” value ([1]; 60 min, mouse 4) was 86.4%. For the same substance, the “% OCN from initial (relative to maximum at 30 min)” value ([1]; 60 min, mouse 5) was 90.9%, the “% OCN from initial (relative to maximum at 30 min)” value ([1]; 90 min, mouse 1) was 85.8% and the “% OCN from initial (relative to maximum at 30 min)” value ([1]; 90 min, mouse 2) was 74.3%. The “% OCN from initial (relative to maximum at 30 min)” value ([1]; 90 min, mouse 3) was 85.8%, the “% OCN from initial (relative to maximum at 30 min)” value ([1]; 90 min, mouse 4) was 74.6% and the “% OCN from initial (relative to maximum at 30 min)” value ([1]; 90 min, mouse 5) was 75.0%. The “% OCN from initial (relative to maximum at 30 min)” value ([1]; 120 min, mouse 1) was 70.4%, the “% OCN from initial (relative to maximum at 30 min)” value ([1]; 120 min, mouse 2) was 66.4% and the “% OCN from initial (relative to maximum at 30 min)” value ([1]; 120 min, mouse 3) was 75.1%. The “% OCN from initial (relative to maximum at 30 min)” value ([1]; 120 min, mouse 4) was 74.6%, the “% OCN from initial (relative to maximum at 30 min)” value ([1]; 120 min, mouse 5) was 74.7% and the “% OCN from initial, mean used for 1/2 life” value (“% OCN from initial, mean used” below) ([1]; time 0 min of declining phase) was 100.0%. The “% OCN from initial, mean used” value ([1]; time 30 min of declining phase) was 90.6%, the “% OCN from initial, mean used” value ([1]; time 60 min of declining phase) was 79.1% and the “% OCN from initial, mean used” value ([1]; time 90 min of declining phase) was 72.2%. The “OCN in stimulation media” value (INS-1 832/3 cells [2]; replicate 1) was 0.12 ng/mL, the “OCN in stimulation media” value (INS-1 832/3 cells [2]; replicate 2) was 0.13 ng/mL and the “OCN in stimulation media” value (INS-1 832/3 cells [2]; replicate 3) was 0.13 ng/mL. For the same substance, the “OCN in stimulation media” value (INS-1 832/3 cells [3]; replicate 1) was 0.15 ng/mL, the “OCN in stimulation media” value (INS-1 832/3 cells [3]; replicate 2) was 0.15 ng/mL and the “OCN in stimulation media” value (INS-1 832/3 cells [3]; replicate 3) was 0.14 ng/mL.

Reference: publication PMC7822592, “The half-life of the bone-derived hormone osteocalcin is regulated through O-glycosylation in mice, but not in humans” (eLife, 2020)
